Blank lines part the entries; values can stand above or below the binder they belong to.
How the values were obtained:
[1] = biological target: T1, rHuman ErbB2/Fc Chimera, CF (R&D Systems Cat#1129-ER) (human, UniProt P04626 23-652); test: ECL multispot (MSD) assay, spotted antigen; Fab 200.00 (head prints uM)
T1 construct: Bought recombinant protein; Fc part of the bought chimera not given

[2] = biological target: T2, rHuman IGF-1 sR, CF (R&D Systems Cat#391-GR) (human, UniProt P08069 31-932); test: as above
T2 construct: Bought soluble receptor; The column head prints only 'IGF-1'; also called insulin-like growth factor-1 soluble receptor

[3] = biological target: T3, rHuman CD44/Fc Chimera, CF (R&D Systems Cat#3660-CD) (human, UniProt P16070 21-220); test: as above
T3 construct: Bought recombinant protein; Fc part of the bought chimera not given

[4] = biological target: T4, rHuman Erythropoietin R/Fc Chimera, CF (R&D Systems Cat#963-ER) (human, UniProt P19235 25-250); test: as above
T4 construct: Bought recombinant protein; also called EPO R; EPO R/Fc; Fc part of the bought chimera not given
T4 sequence (looked up): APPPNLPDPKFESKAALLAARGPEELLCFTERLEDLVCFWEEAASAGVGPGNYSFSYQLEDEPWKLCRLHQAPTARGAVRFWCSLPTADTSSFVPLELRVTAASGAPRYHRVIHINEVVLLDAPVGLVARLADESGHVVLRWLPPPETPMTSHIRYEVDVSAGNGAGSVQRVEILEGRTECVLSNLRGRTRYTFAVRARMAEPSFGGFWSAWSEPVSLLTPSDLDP

[5] = biological target: T5, Recombinant Human DLL4 (R&D Systems Cat#1506-D4/CF) (human, UniProt Q9NR61 27-524); test: as above
T5 construct: Bought recombinant protein; also called delta-like protein 4

[6] = biological target: T6, rHuman Notch-1/Fc Chimera, CF (R&D Systems Cat#3647-TK) (human, UniProt P46531 19-526); test: as above
T6 construct: Bought recombinant protein; Fc part of the bought chimera not given

[7] = biological target: T7, rHuman EGF R/Fc Chimera, CF (R&D Systems Cat#344-ER) (human, UniProt P00533 25-645); test: as above
T7 construct: Bought recombinant protein; Fc part of the bought chimera not given

[8] = biological target: T1, rHuman ErbB2/Fc Chimera, CF (R&D …); test: ECL multispot (MSD) assay, spotted antigen; Fab 0.20 (head prints uM)
[9] = biological target: T2, rHuman IGF-1 sR, CF (R&D Systems …); test: as above
[10] = biological target: T3, rHuman CD44/Fc Chimera, CF (R&D Systems …); test: as above
[11] = biological target: T4, rHuman Erythropoietin R/Fc Chimera, CF …; test: as above
[12] = biological target: T5, Recombinant Human DLL4 (R&D Systems …); test: as above
[13] = biological target: T6, rHuman Notch-1/Fc Chimera, CF (R&D …); test: as above
[14] = biological target: T7, rHuman EGF R/Fc Chimera, CF (R&D …); test: as above
[15] = biological target: T1, rHuman ErbB2/Fc Chimera, CF (R&D …); test: ECL multispot (MSD) assay, spotted antigen; Fab 2.00 (head prints uM)
[16] = biological target: T2, rHuman IGF-1 sR, CF (R&D Systems …); test: as above
[17] = biological target: T3, rHuman CD44/Fc Chimera, CF (R&D Systems …); test: as above
[18] = biological target: T4, rHuman Erythropoietin R/Fc Chimera, CF …; test: as above
[19] = biological target: T5, Recombinant Human DLL4 (R&D Systems …); test: as above
[20] = biological target: T6, rHuman Notch-1/Fc Chimera, CF (R&D …); test: as above
[21] = biological target: T7, rHuman EGF R/Fc Chimera, CF (R&D …); test: as above
[22] = biological target: T1, rHuman ErbB2/Fc Chimera, CF (R&D …); test: ECL multispot (MSD) assay, spotted antigen; Fab 20.00 (head prints uM)
[23] = biological target: T2, rHuman IGF-1 sR, CF (R&D Systems …); test: as above
[24] = biological target: T3, rHuman CD44/Fc Chimera, CF (R&D Systems …); test: as above
[25] = biological target: T4, rHuman Erythropoietin R/Fc Chimera, CF …; test: as above
[26] = biological target: T5, Recombinant Human DLL4 (R&D Systems …); test: as above
[27] = biological target: T6, rHuman Notch-1/Fc Chimera, CF (R&D …); test: as above
[28] = biological target: T7, rHuman EGF R/Fc Chimera, CF (R&D …); test: as above
[29] = biological target: T8, Recombinant Human DLL4 (delta-like protein 4) (human, UniProt Q9NR61 27-524); test: ELISA, Fab on coated recombinant human DLL4, signal minus noise
T8 construct: Bought recombinant human DLL4 (R&D Systems Cat#1506-D4/CF); also called rHuman DLL4; Delta-like 4

[30] = biological target: T8, Recombinant Human DLL4 (delta-like …); test: ECL (MSD electrochemiluminescence) binding assay, Fab on immobilised recombinant human DLL4
[31] = biological target: T9, rHuman P-Cadherin/Fc Chimera, CF (R&D Systems Cat#861-PC) (human, UniProt P22223 108-654); test: MSD Multispot ECL, antigen spotted on plate, Fab in solution; blank spot of the row 240
T9 construct: Bought recombinant Fc chimera; Fc part of the bought chimera not given

[32] = biological target: T10, rHuman Erythropoietin R/Fc Chimera, CF (R&D Systems Cat#963-ER) (human, UniProt P19235 25-250); test: as above
T10 construct: Bought recombinant Fc chimera; also called EPO R; EPO R/Fc; Fc part of the bought chimera not given
T10 sequence (looked up): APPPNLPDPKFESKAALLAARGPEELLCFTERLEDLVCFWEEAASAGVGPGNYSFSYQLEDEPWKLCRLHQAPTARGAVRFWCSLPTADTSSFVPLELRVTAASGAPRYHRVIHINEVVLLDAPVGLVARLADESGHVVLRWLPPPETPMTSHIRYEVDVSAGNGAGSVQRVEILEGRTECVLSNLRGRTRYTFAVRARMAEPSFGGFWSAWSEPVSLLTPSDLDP

[33] = biological target: T11, rHuman Notch-1/Fc Chimera, CF (R&D Systems Cat#3647-TK) (human, UniProt P46531 19-526); test: as above
T11 construct: Bought recombinant Fc chimera; Fc part of the bought chimera not given

[34] = biological target: T12, rHuman HGF R/c-MET/Fc Chimera, CF (R&D Systems Cat#358-MT/CF) (human, UniProt P08581 25-932); test: as above
T12 construct: Bought recombinant Fc chimera; also called HGF R/Fc; hepatocyte growth factor receptor; Fc part of the bought chimera not given

[35] = biological target: T13, rHuman EGF R/Fc Chimera, CF (R&D Systems Cat#344-ER) (human, UniProt P00533 25-645); test: as above
T13 construct: Bought recombinant Fc chimera; also called epidermal growth factor receptor; Fc part of the bought chimera not given

T12 sequence (P08581 25-932, change not shown): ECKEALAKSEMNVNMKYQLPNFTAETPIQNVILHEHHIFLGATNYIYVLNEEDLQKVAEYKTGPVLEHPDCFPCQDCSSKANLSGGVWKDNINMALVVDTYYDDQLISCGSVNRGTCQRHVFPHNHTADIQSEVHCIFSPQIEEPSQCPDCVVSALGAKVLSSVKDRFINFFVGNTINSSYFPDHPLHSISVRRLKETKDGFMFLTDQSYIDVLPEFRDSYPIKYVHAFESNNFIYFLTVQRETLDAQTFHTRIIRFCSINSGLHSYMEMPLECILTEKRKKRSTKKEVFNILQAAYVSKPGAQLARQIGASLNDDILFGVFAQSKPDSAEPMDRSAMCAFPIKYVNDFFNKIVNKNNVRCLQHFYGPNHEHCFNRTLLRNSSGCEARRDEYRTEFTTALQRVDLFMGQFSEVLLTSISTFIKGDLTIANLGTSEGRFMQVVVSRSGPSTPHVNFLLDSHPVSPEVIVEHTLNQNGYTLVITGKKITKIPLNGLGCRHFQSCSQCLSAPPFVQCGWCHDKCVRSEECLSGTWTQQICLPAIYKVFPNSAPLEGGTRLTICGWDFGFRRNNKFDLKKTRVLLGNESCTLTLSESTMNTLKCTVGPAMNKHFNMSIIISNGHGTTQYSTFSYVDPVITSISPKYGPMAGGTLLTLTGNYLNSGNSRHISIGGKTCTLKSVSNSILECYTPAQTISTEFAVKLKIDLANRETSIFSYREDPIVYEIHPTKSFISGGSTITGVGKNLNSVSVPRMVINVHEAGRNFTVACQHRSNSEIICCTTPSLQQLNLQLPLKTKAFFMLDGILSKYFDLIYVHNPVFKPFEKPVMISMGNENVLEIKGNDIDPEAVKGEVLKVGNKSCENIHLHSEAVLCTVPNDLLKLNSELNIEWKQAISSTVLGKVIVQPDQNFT

B1: Fab VH5-51_IGHD5-18*01>3_IGHJ4*01 & V3-4_IGLJ1*01 (Fab, V domains shown)
VH: EVQLVQSGAEVKKPGESLKISCKGSGYSFTSYWIGWVRQMPGKGLEWMGIIYPGDSDTRYSPSFQGQVTISADKSISTAYLQWSSLKASDTAMYYCARRGYSYGYDYFDYWGQGTLVTVSS
VL: QTVVTQEPSFSVSPGGTVTLTCGLSSGSVSTSYYPSWYQQTPGQAPRTLIYSTNTRSSGVPDRFSGSILGNKAALTITGAQADDESDYYCVLYMGSGISYVFGTGTKVTVL
notes: Tested as a Fab made in E. coli; The heavy chain vector (Plasmid A) adds CH1 with His6 and Flag tags, and the lambda light chain vector (Plasmid E) adds CL; also called Wt; wildtype
ECL signal/noise ratio [1]: 3.1
ECL signal/noise ratio [2]: 2.8
ECL signal/noise ratio [3]: 1.6
ECL signal/noise ratio [4]: 2.2
ECL signal/noise ratio [5]: 36.3
ECL signal/noise ratio [6]: 1.3
ECL signal/noise ratio [7]: 2.9
ECL signal/noise ratio [8]: 2.6
ECL signal/noise ratio [9]: 2.9
ECL signal/noise ratio [10]: 1.4
ECL signal/noise ratio [11]: 2.5
ECL signal/noise ratio [12]: 3
ECL signal/noise ratio [13]: 1.7
ECL signal/noise ratio [14]: 3.4
ECL signal/noise ratio [15]: 1.8
ECL signal/noise ratio [16]: 1.6
ECL signal/noise ratio [17]: 1.1
ECL signal/noise ratio [18]: 1.2
ECL signal/noise ratio [19]: 2.2
ECL signal/noise ratio [20]: 1.5
ECL signal/noise ratio [21]: 1.1
ECL signal/noise ratio [22]: 4.4
ECL signal/noise ratio [23]: 1.8
ECL signal/noise ratio [24]: 2.6
ECL signal/noise ratio [25]: 2
ECL signal/noise ratio [26]: 21.1
ECL signal/noise ratio [27]: 1.6
ECL signal/noise ratio [28]: 2.5

B2: Fab VH5-51_IGHD5-18*01>3_IGHJ4*01 G100K/G104T/T58A & V3-4_IGLJ1*01 (Fab, V domains shown)
VH: EVQLVQSGAEVKKPGESLKISCKGSGYSFTSYWIGWVRQMPGKGLEWMGIIYPGDSDARYSPSFQGQVTISADKSISTAYLQWSSLKASDTAMYYCARRKYSYTYDYFDYWGQGTLVTVSS
VL: QTVVTQEPSFSVSPGGTVTLTCGLSSGSVSTSYYPSWYQQTPGQAPRTLIYSTNTRSSGVPDRFSGSILGNKAALTITGAQADDESDYYCVLYMGSGISYVFGTGTKVTVL
notes: Fab expressed in E. coli: VH joined to CH1 (Plasmid A, His6 and Flag tags), VL joined to lambda CL (Plasmid E); also called H:KT T58A
ELISA (Signal-Noise) [29]: 0.07
ECL signal [30]: 12900

Second part, the binder after the results:

ECL signal [31]: 302
ECL signal [32]: 424
ECL signal [33]: 561
ECL signal [34]: 735
ECL signal [35]: 761
B3: Fab VH5-51_IGHD5-18*01>3_IGHJ4*01 G100K/G104T W33A & V3-4_IGLJ1*01 (Fab, V domains shown)
VH: EVQLVQSGAEVKKPGESLKISCKGSGYSFTSYAIGWVRQMPGKGLEWMGIIYPGDSDTRYSPSFQGQVTISADKSISTAYLQWSSLKASDTAMYYCARRKYSYTYDYFDYWGQGTLVTVSS
VL: QTVVTQEPSFSVSPGGTVTLTCGLSSGSVSTSYYPSWYQQTPGQAPRTLIYSTNTRSSGVPDRFSGSILGNKAALTITGAQADDESDYYCVLYMGSGISYVFGTGTKVTVL
notes: Fab made in E. coli; VH cloned into Plasmid A (CH1, His6 and Flag tags), lambda VL into Plasmid E (lambda CL); also called KT W33A

ELISA (Signal-Noise) [29]: 0.05
ECL signal [30]: 8430
B4: Fab VH5-51_IGHD5-18*01>3_IGHJ4*01 G100K/G104T/S56G & V3-4_IGLJ1*01 (Fab, V domains shown)
VH: EVQLVQSGAEVKKPGESLKISCKGSGYSFTSYWIGWVRQMPGKGLEWMGIIYPGDGDTRYSPSFQGQVTISADKSISTAYLQWSSLKASDTAMYYCARRKYSYTYDYFDYWGQGTLVTVSS
VL: QTVVTQEPSFSVSPGGTVTLTCGLSSGSVSTSYYPSWYQQTPGQAPRTLIYSTNTRSSGVPDRFSGSILGNKAALTITGAQADDESDYYCVLYMGSGISYVFGTGTKVTVL
notes: Fab expressed in E. coli: VH joined to CH1 (Plasmid A, His6 and Flag tags), VL joined to lambda CL (Plasmid E); also called H:KT S56G

Source: patent US20120316071A1 (published 2012)
